Columns and labels:
CD70 ECD = target: T1, CD70 ECD (Homo sapiens, UniProt P32970); assay: Biacore affinity measurement on immobilized CD70 ECD; format: binding
T1 sequence (P32970 39-193 limits assumed): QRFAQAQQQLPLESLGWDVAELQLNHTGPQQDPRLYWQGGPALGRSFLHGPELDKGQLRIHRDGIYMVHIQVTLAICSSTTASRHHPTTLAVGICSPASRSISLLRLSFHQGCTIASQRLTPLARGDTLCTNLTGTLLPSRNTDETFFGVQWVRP
Procedure: The immobilization of antigen CD70 ECD was performed at 25° C. with HBS-EP as the running buffer. Sensor chip surface of flow cells 1, 4 were activated by freshly mixed 50 mmol/L N-Hydroxy succinimide (NHS) and 200 mmol/L 1-ethyl-3-(3-dimethylaminopropyl) carbodiimide hydrochloride (EDC) for 420s (10 μL/min). Afterwards, CD70 antigen diluted in 10 mmol/L NaAC (pH 4.5) was injected into flow cell 4 to achieve conjugation of the appropriate Response Unit, while flow cell 1 was set as a blank. After the amine coupling reaction, the remaining active coupling sites on chip surface were blocked by 420s injection of 1 mol/L ethanolamine hydrochloride.
The assay was performed at 25° C. and the running buffer was HBS-EP. Diluted antibodies were injected over the surface of flow cells 1 and 4 during the association phase, followed by injecting running buffer as the dissociation phase. All the data were processed using Biacore T200 Evaluation software version 3.1. Flow cell 1 and a blank injection of buffer in each cycle were used as a double reference for Response Units subtraction. Kinetic data of the interaction between the antibodies and CD70 antigen were obtained through affinity measurement.

[1] = test system: CD70-negative cell line, MCF-7; assay: 2E7 binding by flow cytometry, MCF-7; settings: FIG. 12
Procedure: Binding activity of 2E7 or the isotype control with a target cell line (Raji) or a cell line (MCF-7) that has negligible level of CD70 expression were evaluated by flow cytometry (Beckman, Cytoflex). 3×10^5 cells per well were seeded on a 96-well V-bottomed plate and incubated with 100 μl of 2E7 in serial dilutions. After 30 min incubation at 4° C., cells were washed twice with PBS, stained with 100 μl of 1:200 diluted PE-conjugated anti-human Fc in FACS buffer (1×PBS containing 1% BSA), then incubated at 4° C. for 30 min. Cells were finally washed two times with PBS and analyzed by flow cytometric analysis.

[2] = target: T2, rat CD70 extra-cellular domain (ECD) (Rattus norvegicus, UniProt M0R613); assay: Biolayer interferometry (BLI), rat CD70; format: binding; settings: for Response: *Response below range of quantification
T2 construct: human, rat, or mouse CD70 extra-cellular domain (ECD) linked to His tag; His tag; purchased ACRO systems
T2 sequence (M0R613 1-194): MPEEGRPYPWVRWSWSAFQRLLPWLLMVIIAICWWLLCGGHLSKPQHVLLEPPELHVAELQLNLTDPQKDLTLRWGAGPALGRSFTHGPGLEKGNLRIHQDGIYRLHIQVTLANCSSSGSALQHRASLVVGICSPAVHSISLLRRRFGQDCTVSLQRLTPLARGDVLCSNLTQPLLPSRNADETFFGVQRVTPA
Procedure: Recombinant proteins consisting of human, rat, or mouse CD70 extra-cellular domain (ECD) linked to His tag was purchased (from ACRO systems). 69A7 and 2E7 (20 nM) were immobilized on anti-human IgG Fc biosensor tips (ForteBio). Binding assays using one concentration (100 nM) of recombinant protein in solution were performed using Octet RED (ForteBio). Association time was set at 180s and dissociation time was set at 300s. Binding affinity was calculated using ForteBio Data Acquisition 6.3 software. Affinity was derived by fitting the kinetic data to a 1:1 Langmuir binding model utilizing global fitting algorithms. […] Binding assays for 2E7 using multiple dilutions (from 200 nM down to 3.13 nM) of species' recombinant CD70 ECD proteins in solution were also performed using the same method.

B1: 2E7: anti-CD70 antibody clone, VH SEQ 7 and VL SEQ 8; tested as scFv and full human IgG1/kappa (antibody, V domains shown)
VH: QVQLQESGPGLVKPSETLSLTCTVSGGSVSSDYYYWSWIRQPPGKGLEWLGYIYYSGSTNYNPSLKSRVTISVDTSKNQFSLKLRSVTTADTAVYYCARGDGDFLGVCFDYWGQGTLVTVSS
VL: EIVLTQSPATLSLSPGERATLSCRASQSVSSYLAWYQQKPGQAPRLLIFDASNRATGIPARFSGSGSGTDFTLTISSLEPEDFAVYYCQQRSNWPLTFGGGTKVEIK
modifications: Synthetic 2E7 VH amino acid sequence; Synthetic 2E7 VL amino acid sequence
notes: tested as scFv and full human IgG1/kappa
For B1, which “affinity to CD70 antigen, fold greater than the reference antibody h1F6” value (CD70 ECD) is on record?
The value was 2-3 fold.

And the “Rmax (RU)” value (CD70 ECD; 25° C., CD70 immobilized)?
Its value is 32.94 RU.

What about the “ka” value (CD70 ECD; 25° C., CD70 immobilized) of the same molecule?
Its value is 75400 M⁻¹ s⁻¹.

And the “kd” value (CD70 ECD; 25° C., CD70 immobilized)?
The value was 0.00106 s⁻¹.

And the “binding to MCF-7” value [1]?
Its value is “no binding”.

What about the Response ([2]; RAT CD70 3.13 nM) of the same molecule?
Its Response is “*0.0012”.

What about the Response ([2]; RAT CD70 6.25 nM) of the same molecule?
The Response was “*0.0192”.

What about the Response ([2]; RAT CD70 12.5 nM) of the same molecule?
Its Response is “*−2.762E−03”.

What about the Response ([2]; RAT CD70 25 nM) of the same molecule?
Its Response is “*0.0069”.

What about the Response ([2]; RAT CD70 50 nM) of the same molecule?
Its Response is “*0.0126”.

And the Response ([2]; RAT CD70 100 nM, dilution series)?
The Response was “*0.0271”.

And the Response ([2]; RAT CD70 200 nM)?
Its Response is “*0.0054”.

What about the “ka” value ([2]; RAT CD70, multiple dilutions 200-3.13 nM, global fit, responses below range of quantification) of the same molecule?
Its value is 5.905e+06 M⁻¹ s⁻¹.

What about the Response ([2]; Rat CD70 100 nM, one concentration) of the same molecule?
The Response was “*0.0125”.

What about the “ka” value ([2]; Rat CD70 100 nM, one concentration, response below range of quantification) of the same molecule?
The value was 4641 M⁻¹ s⁻¹.

What about the “cross-reactivity to rat CD70” value ([2]; multiple dilutions, Table 10) of the same molecule?
The value was “no cross-reactivity”.

And the “cross-reactivity to rat CD70” value ([2]; one concentration (100 nM), Table 9)?
Its value is “no cross-reactivity”.
